Measured values: the supplement of paper PMC11502859
“And” between values parts separate entries of the source, which are not always exact repeats. Identical values can stand only once.

Test system: HEK293T
Experiment: median enrichment of reporter reads in eGFP-reduced (low/intermediate) vs eGFP-high sorted cells (eGFP-extension fusion abundance) (ratio); higher = stronger loss of eGFP-fusion protein abundance (more destabilising extension)
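Note: lentiviral eGFP-IRES-mCherry reporter pool sorted by FACS 96 h post-transduction, gated on mCherry-high cells, Illumina read counts normalized per million, median across four biological replicates.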

Substance | median enrichment
SFAFIF [CHST9] | 8.28
SSSSSSSSS [Ser09] | 0.295
SMKCLS [FANCI] | 0.846
SYKPA [WDR97] | 0.947
SSKEVILFCLLIIM [CHMP2B] | 6.82
YRNSNPGVPV [INPP1] | 0.415
READTFFQQ [ADAM12] | 0.392
SDGSAGTHCPPWLPLGGNPNRAPGGNPAPNPPQQGCTVSPLED [ATP13A1] | 0.555
YPGGRVAAGGACAEAS [SLC7A5] | 1.04
LFLNALPHIFRKSRELLP [OR5AU1] | 9.77
YQVAELGPLGQGAQATSSFVVTKQGSPFPFLLPYFVQRTRVIYIYICICLYPSPHLSDSALGTQLWAARGAVPCGSSCVCVPS [SCAMP5] | 8.36
YSQILALLSG [CHRNA9] | 12.2
RGAEGPMGEERRALLGKVGFLDPRDKLFRCHNVEESTWGTTVLVQVGLGKCTSLPLTPRQNPHPSLWILGKVPVPGEYPGPQT [IGHMBP2] | 5.61
YNIVYVFCHL [KIAA1586] | 8.8
CGCQLGRKRETRP [CCND2] | 0.808
FANCD2 | 5.79 and 4.35
AGRAPPCMMGKAILPLPPPCFCCLFGEGGGEVGAAAPHPSSLLICTHWPLQTRTSGASPSPPPPCLAAGVAMMGWSSLGQGVL [SCN1B] | 3.87
RFHRSAFGHLLWWVLVTHFRLRFDGLNLYSLESMSCVYSTIRNLILFLLLFLQKQKLILKSIIMGWGGGCPQDMQDFCRGQHR [SETD4] | 8.11
LARAPSGGITDLMTTLALLPCRVQVLSPHFHLPAPRGPFPFMGLPPSDAQEGSSAMTGLLPLTSREHPLDLGRWWSQGWAAYF [PCDH1] | 6.44
LVVDVWGI [XRCC5] | 4.14
GGGGQVTRSGLSFWGCRSTEPLTPVCPRSPNRCGSSSERLSVQAMGQDRKVPELGKPGCNFLLHPAPPEVLRRVFLGIVFCSC [JUP] | 5.66

Substance | median enrichment
CLGVKAFHGHPCTGYLLVMLQNVSPTLCPSLALLPQSP [TEX35] | 11.2
CDPPRPPEWPPPHHSTMGLDARVIVVQNRRENRPATHKGQG [TMEM151A] | 4.51
LPVGCFTSTPAPPASNAHSTPNTTPCPTNAHSRAW [C1QB] | 1.02
YGFLGFPSWACLLKA [CSF3R] | 5.35
YGWWQPGFWPRAPPPD [PHC2] | 2.07
YPILKVALFLLDLAELVAWGVGEIKRT [SPCS2] | 11.7
WWHELLASLDGQSKKKLVYFVQICHKLKAVTGEKD [PIWIL4] | 22.9
LRCQLPSEQAGGICHTAPPLG [SMPD4] | 2.92
LTQPRGGSLVFVLKFLVPNVFSSTFS [IL36G] | 15.7
YVTTPRSSAFKTKRDWGSGEGEEEQEEKKYSELLQVTLIKNLL [NR5A2] | 8.46
YRGPCRHHPPPSPCPQPVCPVPCPPQAWWWQWRRLRRLKRLTGRGAFCLAHCPDDPPAPSRLQQQSPRRTGWTEEKEVDCCTH [SOX10] | 3.52
EQPGTAFSFPAEYC [RBM34] | 0.275
CGPGGSGRGWPHPHDHCPGGGGLLLLSF [BIK] | 10.6
YNWKLSTHRKRSLLGRWPPQCLEKNLWASTAAREELLQARGRKGENTNSLVVSGVGG [S1PR1] | 5.24
YFFI [ATP2B1] | 9.67
YLSNH [WDR27] | 3.24
LDVQDL [ZMPSTE24] | 0.209
RGAGTCDRLWWHH [NAGA] | 1.53
LVRGRGGAGTYLPESWRQNEALSIPGILLLLRADARPRASRDGVGEVLPTPLSSFPSSTKFPPALTE [SELENOM] | 4.2
RGGSASVPSLTSLGCCFSGVMSPLPLGYLPSTGQGPWWADGN [SFXN3] | 21.3
RMSSFIRIWALSSFFSTHFPLPGPPLIQMPPSDSSWKPFLQLGQYDF [MSANTD2] | 33.9

Substance | median enrichment
WGAAYQSLGSHLLRC [C11orf91] | 5.76
CLGPGRATGSSQAAARMLISKRCWSLPS [ZBTB39] | 30.1
GRNQQSTSAGQQPREPLPTRIAGSVTEQAG [ETV6] | 4.01
FFFFFFFFFF [Phe10] | 7.03
ENSSSTMDFRLLVAVLT [ELF2] | 7.29
VGTMAAGRAPGK [Degron APPBP2] | 6
LGQAAPVLGEGG [DEPDC5] | 1.71
YDTP [CD1A] | 0.395
WEAGWG [RPS6KB2] | 1.06
WREGSNGSRELDTVHPNTSPPPGHLEESSARIPRQSSPPAPAVPSCAVLLPHSAPGPCPFIPLKHPLKPLHHFHSQQKVIEHL [HAUS5] | 4.17
YPWPPGLASSFWVSQAPLALTPLARSPSFRSS [PPFIA4] | 16
WNLLSMILPATPLPSLAQSRGAMLSAHPSCTLAPCSRDVSTHSLC [MYPOP] | 7.81
QVFGKQQRASPLPGGLPCRFWASFPCLSLFRCAFHL [MAP2K1] | 13.2
RTF [KBTBD3] | 0.378
LECRSAGRREE [CNPY1] | 12.4
LEIPGFSDGPI [SLC39A2] | 0.676
YGDNSPVSKPGCQIQ [KIR3DL2] | 3.37
WKMKIP [N4BP2L2] | 1.67
QLGAHIKCFILHTWTLKPGCACILKQQSSHSFRQMFSVSEENMFSEEKTFRQMFSEEKKGKLGVGRC [PRAME] | 9.08
LDAIWIWGLGVCVGGGIKWLWAGLSFPTAGCHIYTISLVRFLYKNLLLT [LSMEM2] | 15.5
SGGLPRRAKMAEMILKITEEREDQPEFPLDICVFLFFYFVLFFLLLLLP [SOX9] | 4.3

Substance | median enrichment
YIMDWDILYFSC [UBA5] | 13
RNCMKKIKSSKMALVTIKKL [CXorf41] | 2.73
QFCPPVTPVSGTRNPQHALMLCF [DNMT1] | 4.79
AAAAAAAAAA [Ala10] | 8.89
YVLILPSH [HSPA4L] | 10.7
WVDGRNIFINQIESIYKNGSRILPQFFCQKVCIYVCIYIYLYIYMTDVF [GCC2] | 11.6
GSGP [LCE1D] | 0.314
WPV [HNRNPUL1] | 0.672
STSPAPLRTPPRLDGWAHASHWGPGSRRWAPTLGPRGAANHTGLRPSYPAPSPSTSTFTSPPFHFFLYVFFLLETDSIHIEYN [JUNB] | 4.9
YKGAEEGWSGWAGGPTSSPQHLPPTQLGQRGQDVCLPLRDRCLCPHTATGV [SEMA3G] | 2.63
QPPARQRGHRRASPECRPWVAGPGSLVPPGGHRHRLAWQAGPLCHPLLGACRPFPSTPQVFQALLPQFPKWNHLTSAAPDLPG [SECTM1] | 4.68
EILSLAAICKGS [TET2] | 18.6
QSTTALSS [GALNT4] | 0.487
QDTERRTYSRNGLVQSQSPPL [CFAP157] | 0.332
YVFVIFNCSML [CRISP1] | 8.9
WIPQGTTEAKELEVFSRGTDGLRALMMLPEVCKSFMS [LOR] | 10.9
LVSLPLVSAWQPPPPTYHPSPITQVNVTNLPCLHINLYIFGCSPYLMAVIIYRYVYPCYLVVSFSRGGTVFYSSLCPLFLSSV [PGLYRP4] | 2.37
GSGLCLVLSLPGRCSTPYRGGQLRAWAASSWTQLSRSSCSAQGGHMSEPRSWTSTQEDASEGKEIFYGLRPECQY [KLRG2] | 7.23
ECPARAAAPATLPRVAFRAAPRVGNLGARGGRLGVPFFFSFSFAFRLFYFFLK | 15.7
LPLVLYSNLFGNDSSTHRTACVRAHTHTHTHTHTHH [GNAO1] | 3.16
